Measurements reported in the supplement of paper PMC10724198.
± gives the standard deviation of the averaged measurements.

What follows are sequences tested on Saccharomyces cerevisiae (assay: protein stability index of tFT-peptide fusion (C-terminal peptide) (PSI (0-1 scale)); higher = more stable (slower turnover)). Conditions: genetic background: wild type; temperature: 30 C.
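Also: PSI is a weighted mean of sequencing reads over stability bins, variants kept only with over 10 reads, mCherry proximal and sfGFP distal, peptide attached via GGGS linker.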

Row | Sequence | protein stability index
1 | ADGLSRDKALIV | 0.598 ± 0.0074
2 | PAPPPLPSAAPP | 0.706 ± 0.14
3 | GGFKGGKWVVEG | 0.606 ± 0.021
4 | FLGAVVGVGLVG | 0.658 ± 0.053
5 | GGWGVGVWGVGG | 0.753 ± 0.08
6 | VVDWRRAAKREG | 0.685 ± 0.051
7 | PRHGSPASPRPP | 0.636 ± 0.086
8 | TPPLCAPPLPPP | 0.7022 ± 0.0054
9 | WAGSGCECTGGG | 0.705 ± 0.0031
10 | PLWALVRDVRVG | 0.652 ± 0.033
11 | SAGGCSVMAGNG | 0.709 ± 0.11
12 | PPRFLPFPPLPL | 0.75493 ± 0.00067
13 | LVFGLGSVYLWG | 0.602 ± 0.059
14 | PPPYRPPPSSPG | 0.661 ± 0.04
15 | IVQETKYFVRRS | 0.685 ± 0.082
16 | YTSHRGKVYMSV | 0.632 ± 0.019
17 | KKTGITTNIKRW | 0.741 ± 0.23
18 | PPHPPRPSVSSS | 0.687 ± 0.0097
19 | VLLGFSDYLRVT | 0.698 ± 0.079
20 | HWSVATNMLEQH | 0.74 ± 0.054
21 | FWGCFVWFCVCG | 0.509 ± 0.023
22 | VRRWAVSSAFVG | 0.628 ± 0.054
23 | TSRSPLCTETIP | 0.736 ± 0.0074
24 | LSLSPLHRSSFR | 0.6954 ± 0.0056
25 | SFLHSRAELPAG | 0.604 ± 0.065

Row | Sequence | protein stability index
26 | DSTGFRQNGQTD | 0.73 ± 0.015
27 | SYGTIGYLATSF | 0.687 ± 0.075
28 | TRDVPVTPQWGY | 0.671 ± 0.076
29 | PHPPPPSPPLPT | 0.709 ± 0.041
30 | GVVMMGERGGER | 0.685 ± 0.049
31 | PLSPLPPPPPPP | 0.649 ± 0.04
32 | GDTRILKSRPEI | 0.699 ± 0.0098
33 | QFDRDCAWRPDV | 0.653 ± 0.039
34 | GGGPGRGVWVRV | 0.705 ± 0.021
35 | KNKKKNQIENRT | 0.692 ± 0.0014
36 | PPGSPGPRTPPP | 0.708 ± 0.024
37 | SISSFLPRRLPF | 0.662 ± 0.033
38 | LPIKRLWKGLHG | 0.652 ± 0.1
39 | LLRYAPSALPLP | 0.6683 ± 0.0031
40 | DRGSSRFTIGPK | 0.676 ± 0.022
41 | KECGICGAVVGL | 0.63 ± 0.092
42 | GQKRKKKGGKEE | 0.685 ± 0.065
43 | SKYVVQSENITG | 0.699 ± 0.015
44 | RIQMSGHTNLVG | 0.686 ± 0.024
45 | GLVVWFFQSPHF | 0.597 ± 0.036
46 | TPPRVYPLLRTS | 0.682 ± 0.016
47 | VRARTAFVPLPA | 0.727 ± 0.097
48 | KKNKKKRRAQKE | 0.669 ± 0.044
49 | LSVSLCWRHFFS | 0.693 ± 0.012
50 | SRRSNMRNMRTT | 0.657 ± 0.081

Row | Sequence | protein stability index
51 | KHVRIEVITERN | 0.635 ± 0.056
52 | PSSWGRFLRRRP | 0.7 ± 0.024
53 | VSPNSFVGRPCF | 0.717 ± 0.072
54 | LPPLPPRSPPPP | 0.731 ± 0.02
55 | PLPPSPPPPPSP | 0.677 ± 0.019
56 | DSRTLDQNRAKF | 0.824 ± 0.032
57 | PPHHPPPASRSQ | 0.653 ± 0.068
58 | GGGGWGGAGLVG | 0.704 ± 0.014
59 | PLPLAPHPDYSL | 0.687 ± 0.052
60 | SVKGRVPLYVSE | 0.658 ± 0.042
61 | DVHNCSLQAAKK | 0.691 ± 0.012
62 | PPPRPRYLHPPS | 0.719 ± 0.035
63 | LFSSFFSAAFAS | 0.677 ± 0.064
64 | RRNISRQNKKKR | 0.76 ± 0.11
65 | NLPLVDIIPISN | 0.828 ± 0.025
66 | RVGTHDRTRAHG | 0.601 ± 0.02
67 | RGEGGRALGVGR | 0.688 ± 0.015
68 | PAPPPVRPRSLP | 0.627 ± 0.021
69 | ALFEDWRIGVFS | 0.71 ± 0.036
70 | VKIYPSHGKVRD | 0.6901 ± 0.00096
71 | RTSCEQYERGLM | 0.673 ± 0.012
72 | SRLRPHNSSTPV | 0.716 ± 0.053
73 | PTPLLTQHPRRP | 0.72 ± 0.043
74 | CISCVVDSPLSV | 0.712 ± 0.045
75 | SEKKKKNKKNKK | 0.714 ± 0.2

Row | Sequence | protein stability index
76 | MGFRSVRGWVSL | 0.699 ± 0.093
77 | PHPLPHASPAPC | 0.6677 ± 0.0019
78 | LHCKRPTPLTDS | 0.657 ± 0.019
79 | ERQSMNKRERNP | 0.683 ± 0.023
80 | GDRAKTKQRESN | 0.671 ± 0.01
81 | QTKSPAKREKTC | 0.665 ± 0.058
82 | KKSKKHEKKKNK | 0.711 ± 0.065
83 | LPCGPRGLTRPP | 0.661 ± 0.0091
84 | PALLRLGTGAVG | 0.711 ± 0.047
85 | PPPSHLGSLDPL | 0.661 ± 0.02
86 | IKVIACSEPIPG | 0.592 ± 0.021
87 | AHPLSVSSFLSF | 0.671 ± 0.0073
88 | VADTLVCRGPMA | 0.718 ± 0.023
89 | PGVRPPSLVPPL | 0.65 ± 0.11
90 | PPHCSSPTPARH | 0.694 ± 0.028
91 | GKYIPHGNPSMA | 0.685 ± 0.051
92 | VALPVGQKLRTR | 0.633 ± 0.029
93 | IGSHDTRVVKMD | 0.731 ± 0.059
94 | RCGGGGSVSFWW | 0.693 ± 0.049
95 | DPWPPPRTRTRT | 0.682 ± 0.015
96 | PPLSHPRPILAP | 0.5683 ± 0.0025
97 | KQFGIHSRVFLM | 0.547 ± 0.021
98 | LSGSRAFVTVVL | 0.644 ± 0.034
99 | RLCSPVSVLLPP | 0.713 ± 0.047
100 | VLSGPQVVWSES | 0.679 ± 0.017

Row | Sequence | protein stability index
101 | LSSARPMNLPPG | 0.67 ± 0.057
102 | GPGRGWQGGPKL | 0.739 ± 0.023
103 | HLPSSRHNPLQN | 0.695 ± 0.037
104 | SRNLRRLEIRRE | 0.743 ± 0.027
105 | LTGCFRSSRRCC | 0.665 ± 0.02
106 | PLSPPPPSPPFA | 0.743 ± 0.013
107 | SLRPPLRPPTVV | 0.601 ± 0.017
108 | TCVLPDLNTRWS | 0.685 ± 0.02
109 | ESYRTYNSIQVY | 0.518 ± 0.015
110 | MKTNFLDVKILM | 0.7186 ± 0.0059
111 | RSHRGSPCPLVP | 0.69 ± 0.025
112 | RETMFTRFRGSD | 0.627 ± 0.063
113 | GLMTISFPSFFR | 0.704 ± 0.068
114 | SSPRRRLHSLSL | 0.782 ± 0.04
115 | WCPGAGGAVVVV | 0.658 ± 0.073
116 | PPVPPPLPSPPP | 0.712 ± 0.025
117 | RHPVFSSTVSYI | 0.738 ± 0.03
118 | WSCTPRTPPPPR | 0.7925 ± 0.002
119 | PPRLVPPTPPSS | 0.65 ± 0.064
120 | SLSFSLPLFSLG | 0.681 ± 0.013
121 | PPSLPPLPFSTP | 0.7352 ± 0.0065
122 | PSPLCDFTRSSI | 0.659 ± 0.025
123 | HRLTFLDTPSGH | 0.781 ± 0.076
124 | VPPFGPTPLASI | 0.797 ± 0.073
125 | DGQSAKEPVGFR | 0.681 ± 0.037

Row | Sequence | protein stability index
126 | AMVATAYINPHE | 0.712 ± 0.037
127 | SCTGGLVSVRGV | 0.666 ± 0.023
128 | EDCAGIFCQSVK | 0.68 ± 0.015
129 | SRAPPTSLVWGF | 0.678 ± 0.097
130 | TNVPVLTLMVYL | 0.591 ± 0.089
131 | SPRGRGARRGRI | 0.705 ± 0.028
132 | FLSRCSVRPVTY | 0.668 ± 0.021
133 | CGGVLAQREVSG | 0.637 ± 0.021
134 | FFFGPPPCRSFF | 0.731 ± 0.019
135 | RFAFLPPPPLPP | 0.636 ± 0.011
136 | AWLLWGPVLRGI | 0.694 ± 0.051
137 | WSIWRLPSFEWV | 0.741 ± 0.04
138 | ARCLSFPSSSSA | 0.654 ± 0.022
139 | PTGSHARRRPRR | 0.65 ± 0.023
140 | FGGEGGEEMAGG | 0.789 ± 0.034
141 | HGAPLPTSAPKH | 0.7271 ± 0.0031
142 | LLGLWSFLIPPS | 0.677 ± 0.0023
143 | SHLAHLHPHIAR | 0.675 ± 0.026
144 | PSPRPPPPPPPP | 0.66 ± 0.025
145 | AQTHGGSSLPRP | 0.688 ± 0.028
146 | RPTGHAPSRALT | 0.659 ± 0.062
